Results: patent US20190276542A1 (QILU PUGET SOUND BIOTHERAPEUTICS, published 2019)
Read-outs that look alike come from different tables or passages of the source.

Assays:
[1] = molecular target: T1, human CTLA4 expressed on Jurkat T cells (human, UniProt P16410 36-223); assay: cell-based or functional assay
[2] = molecular target: T1, human CTLA4 expressed on Jurkat T cells; assay: cell-based or functional assay; remark: listed apart in the source
[3] = molecular target: T1, human CTLA4 expressed on Jurkat T cells; assay: flow cytometry on Jurkat T cells expressing hCTLA4
From the text: After washing, the surface-bound anti-hCTLA4 antibodies were detected with a polyclonal anti-hlgG (Fc-specific) antibody labeled with fluorescein isothiocyanate (FITC)(anti-hlgG-FITC). Binding of anti-hCTLA4 antibodies were detected by flow cytometric analysis. The results were reported a geometric mean fluorescence intensity (MFI) using FlowJo software (FLOWJO, L.L.C., Ashland, Oreg., USA).

[4] = molecular target: T2, CTLA4-ECD_Fc, soluble hCTLA4 comprising the extracellular domain of hCTLA4 fused to an Fc fragment (human, UniProt P16410 36-161); assay: flow cytometry; inhibition of CTLA4-ECD_Fc binding to Raji cells (hB7-1/hB7-2)
T2 construct: extracellular domain; not shown: Fc fragment
Description: In a first assay, inhibition of hCTLA4 binding to hB7-1 and hB7-2 expressed on the surface of Raji cells was assessed. Raji cells, which are human cells, express high levels of hB7-1 and hB7-2. […] After 30 minutes, 1×10⁵ Raji cells were added to each well and incubated for another 30 minutes. […] IC₅₀'s were calculated using GraphPad Prism software (GraphPad, Inc., La Jolla, Calif., USA).

[5] = molecular target: T1, human CTLA4 expressed on Jurkat T cells; assay: cell-based or functional assay; remark: listed apart in the source

T1 sequence (P16410 36-223): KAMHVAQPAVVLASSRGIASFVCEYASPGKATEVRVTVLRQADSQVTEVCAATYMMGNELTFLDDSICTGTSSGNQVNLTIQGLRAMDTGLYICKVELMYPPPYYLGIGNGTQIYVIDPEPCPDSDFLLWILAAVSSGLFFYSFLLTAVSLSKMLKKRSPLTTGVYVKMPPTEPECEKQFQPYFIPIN
T2 sequence (P16410 36-161): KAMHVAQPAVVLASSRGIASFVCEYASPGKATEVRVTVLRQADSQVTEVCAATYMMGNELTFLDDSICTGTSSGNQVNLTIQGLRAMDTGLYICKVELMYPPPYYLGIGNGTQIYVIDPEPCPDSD

Binder | IC50, luciferase (RLU), CTLA4 Dual-Cell Reporter Assay (Jurkat cells with hCTLA4 plus Raji cells) [1] [nM] | IC50, luciferase reporter assay (Jurkat cells with CTLA4 plus Raji cells with hCD80 and hCD86) [2] [nM] | EC50 [3] [nM] | IC50 [4] [nM] | IC50, luciferase reporter assay (Jurkat cells with CTLA4 plus Raji cells with hCD80 and hCD86) [5] [nM]
anti-hCTLA4 antibody 10D4 (antibody, human IgG1, V domains shown, unaltered form; also called Anti-CTLA4 10D4; anti-hCTLA4 #10D4) VH: QVQLVESGGGVVEPGRSLRLSCTASGFTFSSYGMHWVRQAPGKGLEWVAVIWYHPSKKDYADSAKGRFTISRDNSKNTLYLQMNSLRAEDTAVYYCARAGLLGYFDYWGQGTLVTVSS VL: EIVLTQSPGTLSLSPGERATLSCRASQSVTSYLAWYQQKPGQAPRPLIYGVSSRATGIPDRFSGSGSGTDFTLTISRLEPEDFAVYYCQQYGRYPFTFGPGTKVDIK | 6.12 | 2.12 | 0.085 | 3.3 | –
altered anti-hCTLA4 11F4 (antibody, human IgG1, kappa, V domains shown) VH: QVQLVESGGGVVEPGRSLRLSCAASGFTFSSYGMHWVRQAPGKRLEWVAVIWYKPSEKDYADSAKGRFTISRDNSKNTLYLQMNSLRAEDTAVYYCARGGLLGYFDYWGDGTLVTVSS VL: EIVLTQSPGTLSLSPGERATLSCRASQSINSYLAWYQQKPGQRPRPLIYGVSSRATGIPDRFSGSGSGTDFTLTISRLEPEDFAVYYCQQYGRYPFTFGDGTKVDIKR | – | – | – | – | 8.68
anti-hCTLA4 antibody 11F4 (antibody, human IgG1, V domains shown, unaltered form; also called Anti-CTLA4 11F4; anti-hCTLA4 #11F4) VH: QVQLVESGGGVVEPGRSLRLSCAASGFTFSSYGMHWVRQAPGKGLEWVAVIWYKPSEKDYADSAKGRFTISRDNSKNTLYLQMNSLRAEDTAVYYCARGGLLGYFDYWGQGTLVTVSS VL: EIVLTQSPGTLSLSPGERATLSCRASQSINSYLAWYQQKPGQAPRPLIYGVSSRATGIPDRFSGSGSGTDFTLTISRLEPEDFAVYYCQQYGRYPFTFGPGTKVDIK | 7.39 | – | 0.158 | 7.5 | 4.8
